Reference: US10227575B2, “Multi-domain enzymes having cutinase activity, compositions comprising same and uses thereof” (OZYMES, priority 2015, dated 2019)
Read-outs that look alike come from different tables or passages of the source. Marks after values point to notes of the source that are not given here.

Assays:
[1] = Specific activity of purified enzymes (standard esterase assay); assay type: biochemical
Experimental: In summary, using different techniques for enzyme purification, pure enzyme preparations were obtained and tested for their activity towards a standard esterase substrate, pNP-palmitate. Enzymatic activities of the purified variants are summarized below:
(§1) Esterase activity was determined by monitoring the formation of para-nitrophenol (pNP) at 410 nm from various pNP-esters using a Beckman UV spectrophotometer (model DU 640). Substrates were completely dissolved in 2-propanol (8 mM) and were then added to 50 mM Tris/HCl buffer pH 8.0 to give a final substrate concentration of 0.8 mM. The reaction (1 mL) was started by adding an appropriate amount of enzyme. One enzyme unit (U) was defined as the amount of enzyme that produced 1 μmol of product (pNP) per min; specific activity was expressed as U/mg protein. A molar extinction coefficient of 15 mM^−1 cm^−1 was used for the calculation.

[2] = Stability in the presence of hydrogen peroxide; assay type: physicochemical
Experimental: as §1
Purified cutinases were incubated at room temperature in the presence of 0, 30, 100, 300, 1500, and 3000 ppm of hydrogen peroxide. Residual enzyme activity was assayed (see Example 20.1) after 1, 2, 3, and 7 days of incubation.

[3] = Enzyme substrate profiles, esterase assays; assay type: biochemical; details: highest activity towards a specific substrate set to 100%
Experimental: as §1

[4] = assay type: biochemical, Petromyces albertensis; details: for Residual ochratoxin A (%): 5 ppm Ochratoxin A, 37° C., relative to incubation without enzyme
Experimental: The enzymes purified in Example 18 were tested for their ability to degrade the mycotoxin Ochratoxin A. In general, the mycotoxin was incubated with different concentrations of the enzyme, and the remaining mycotoxin concentration, as well the respective degradation products, were monitored by LC-MS over time (where possible/applicable).
Reactions were performed in 1 mL volumes in glass HPLC vials comprising the mycotoxin to be analyzed and the enzyme to be tested. For Ochratoxin A (Petromyces albertensis, 01877 Sigma), 50 μL of a 100 ppm stock solution in methanol (final concentration of 5 ppm) was added to 910 μL of distilled water and 40 μL of the enzyme to be tested. In control reactions, the volume of enzyme was substituted with distilled water. The reactions were incubated in an Eppendorf thermomixer at 37° C. with shaking at 750 rpm. 100 μL samples were withdrawn at 1, 4 and 24 h for chromatographic analysis.
Mycotoxin analysis was carried out using a Shimadzu LCMS-2020 equipped with a UV/vis detector. Chromatographic separation of 10 μL injected sample was carried out at 30° C. on a Kinetex 2.6 μm XB-C18 column 100 Å (50×2.1 mm) using a binary gradient. For Ochratoxin A, eluent A consisted of water and eluent B consisted of acetonitrile and the UV detection wavelength was 360 nm.
The five enzymes tested were screened for their ability to degrade 5 ppm (5,000 ppb) Ochratoxin A at 37° C.

[5] = Enzymatic activity in the presence of organic solvents; assay type: biochemical; details: buffer only = 100%
Experimental: Enzyme activity in various organic solvents was studied over a concentration range of 1-30% at room temperature. pNP-palmitate was completely dissolved in 2-propanol (8 mM) and then added to 50 mM Tris/HCl buffer pH 8.0 containing up to 30% organic solvent to give a final substrate concentration of 0.8 mM. The reaction was started by addition of enzyme and the formation of pNP was assayed as described above in Example 20.1.

pH dependence of enzymes = assay type: biochemical; details: for Relative activity (%): highest activity = 100%
Experimental: The influence of different pH values (from 5.5 to 11) on the activities of the purified enzymes was examined in three buffer systems (sodium acetate, sodium phosphate, and Tris-HCl) at room temperature using pNP-palmitate (see esterase assay in Example 20.1) as a substrate at a final substrate concentration of 0.8 mM.

[6] = Activity of crude culture supernatants from bioreactor; assay type: biochemical; details: pNP-dodecanoate
[7] = Circular dichroism spectroscopy, melting temperature and refolding; assay type: physicochemical
Experimental: CD spectra were recorded using a Jasco™ J-815 spectrometer operating with the Spectra™ Manager software. Temperature was controlled using a Jasco™ PFD-452S peltier unit. Previously purified protein solutions were adjusted to 0.15 mg/mL (if quantities allowed for) and CD spectra were recorded between 190 and 250 nm using a Quartz cuvette (ID=0.1 cm). Blanks containing buffer only were prepared and used as baseline. Temperature dependent protein unfolding was monitored at 222 nm with thermo profiles ranging from 20 up to 90° C. (2° C. min-1). Samples were kept for 5 min at the respective maximum temperature and protein refolding was monitored using the same conditions as above reversing the thermo profiles. Thermodynamic parameters (Tm, ΔH, ΔS, ΔG) for the folding/unfolding process, if applicable, were calculated using the Spectra™ Manager software.

B1: Am-Kr: chimeric variant: AmCUT fused to the T/P-rich linker domain and polymer binding domain of KrCUT, SEQ ID NO: 27 (protein)
chain: ACSDLEIVFARGSGEAPGLGITGTPLVSDVKSALSSASVSSYAVDYAASYDQTSAGPGATDMSNHIKSTAAACPDTKFAIGGYSQGASVTDIAIGIRTYLGTGQTIPTELAPRVVAVIAFGNPLGLYGQTIKTASPTYGPKSLEFCNRGDNVCGGTGTGPGYGHLSYARDGSVDQAAAFIAKQYNASAGTPTTPTPTPTPTPVPTTCVRDSTRDHVAADRAVSLYGRAYARGSRDSLGATSSYNVVSLQQVEGGWRLVTAC
modifications: YebF carrier; Am-Kr variant
[1]; pNP-palmitate
  Enzymatic activity of the purified variant: 174 ± 11 U/mg
[1]; towards pNP-palmitate (standard assay)
  Spec. Act. (U/mg): 174 ± 11 U/mg
[2]; H2O2 30 ppm, Day 0
  Relative activity (%) after exposure to hydrogen peroxide: 92 ± 3%
[2]; H2O2 30 ppm, Day 1
  Relative activity (%) after exposure to hydrogen peroxide: 90 ± 15%
[2]; H2O2 30 ppm, Day 2
  Relative activity (%) after exposure to hydrogen peroxide: 82 ± 8%
[2]; H2O2 30 ppm, Day 3
  Relative activity (%) after exposure to hydrogen peroxide: 71 ± 4%
[2]; H2O2 30 ppm, Day 7
  Relative activity (%) after exposure to hydrogen peroxide: 63 ± 5%
[2]; H2O2 100 ppm, Day 0
  Relative activity (%) after exposure to hydrogen peroxide: 101 ± 3%
[2]; H2O2 100 ppm, Day 1
  Relative activity (%) after exposure to hydrogen peroxide: 97 ± 5%
[2]; H2O2 100 ppm, Day 2
  Relative activity (%) after exposure to hydrogen peroxide: 83 ± 2%
[2]; H2O2 100 ppm, Day 3
  Relative activity (%) after exposure to hydrogen peroxide: 73 ± 5%
[2]; H2O2 100 ppm, Day 7
  Relative activity (%) after exposure to hydrogen peroxide: 69 ± 4%
[2]; H2O2 300 ppm, Day 0
  Relative activity (%) after exposure to hydrogen peroxide: 100 ± 9%
[2]; H2O2 300 ppm, Day 1
  Relative activity (%) after exposure to hydrogen peroxide: 88 ± 5%
[2]; H2O2 300 ppm, Day 2
  Relative activity (%) after exposure to hydrogen peroxide: 83 ± 2%
[2]; H2O2 300 ppm, Day 3
  Relative activity (%) after exposure to hydrogen peroxide: 72 ± 10%
[2]; H2O2 300 ppm, Day 7
  Relative activity (%) after exposure to hydrogen peroxide: 61 ± 4%
[2]; H2O2 1,500 ppm, Day 0
  Relative activity (%) after exposure to hydrogen peroxide: 91 ± 8%
[2]; H2O2 1,500 ppm, Day 1
  Relative activity (%) after exposure to hydrogen peroxide: 97 ± 9%
[2]; H2O2 1,500 ppm, Day 2
  Relative activity (%) after exposure to hydrogen peroxide: 75 ± 15%
[2]; H2O2 1,500 ppm, Day 3
  Relative activity (%) after exposure to hydrogen peroxide: 73 ± 3%
[2]; H2O2 1,500 ppm, Day 7
  Relative activity (%) after exposure to hydrogen peroxide: 60 ± 6%
[2]; H2O2 3,000 ppm, Day 0
  Relative activity (%) after exposure to hydrogen peroxide: 86 ± 6%
[2]; H2O2 3,000 ppm, Day 1
  Relative activity (%) after exposure to hydrogen peroxide: 68 ± 9%
[2]; H2O2 3,000 ppm, Day 2
  Relative activity (%) after exposure to hydrogen peroxide: 63 ± 4%
[2]; H2O2 3,000 ppm, Day 3
  Relative activity (%) after exposure to hydrogen peroxide: 67 ± 2%
[2]; H2O2 3,000 ppm, Day 7
  Relative activity (%) after exposure to hydrogen peroxide: 55 ± 3%
[2]; H2O2 3,000 ppm, Day 7, listed as Am—Kr
  Relative activity (%) after exposure to hydrogen peroxide: 55%
[3]
  Relative activity, pNP-acetate (C2): 9 ± 1%
  Relative activity, pNP-butyrate (C4): 75 ± 8%
  Relative activity, pNP-caprylate (C8): 100* %
  Relative activity, pNP-decanoate (C10): 72 ± 2%
  Relative activity, pNP-myristate (C14): 46 ± 8%
  Relative activity, pNP-palmitate (C16): 49 ± 6%
[4]; 1 h
  Residual ochratoxin A (%): 6%
[4]; 4 h
  Residual ochratoxin A (%): 0%
[4]; 24 h
  Residual ochratoxin A (%): 0%
[4]; after 4 hours
  Ochratoxin A degraded: 100%
[4]; per 1 U of enzyme (pNP standard test) and hour at 37° C.
  Ochratoxin A Degradation per U and h: 3 µmol
[5]; 2-Propanol 5% (v/v)
  Relative enzymatic activity (%): 70 ± 10%
[5]; 2-Propanol 10% (v/v)
  Relative enzymatic activity (%): 23 ± 2%
[5]; Acetone 1% (v/v)
  Relative enzymatic activity (%): 118 ± 1%
[5]; Acetone 5% (v/v)
  Relative enzymatic activity (%): 90 ± 14%
[5]; Acetone 10% (v/v)
  Relative enzymatic activity (%): 74 ± 7%
[5]; Dimethyl sulfoxide (DMSO) 10% (v/v)
  Relative enzymatic activity (%): 114 ± 2%
[5]; Dimethyl sulfoxide (DMSO) 20% (v/v)
  Relative enzymatic activity (%): 90 ± 8%
[5]; Dimethyl sulfoxide (DMSO) 30% (v/v)
  Relative enzymatic activity (%): 60 ± 5%
[5]; Dimethylformamide (DMF) 5% (v/v)
  Relative enzymatic activity (%): 120 ± 11%
[5]; Methanol 10% (v/v)
  Relative enzymatic activity (%): 87 ± 10%
[5]; Methanol 20% (v/v)
  Relative enzymatic activity (%): 60 ± 13%
pH dependence of enzymes
  pH opt.: 9.5
pH dependence of enzymes; pH 6.5, sodium phosphate buffer
  Relative activity (%): 23 ± 2%
pH dependence of enzymes; pH 7.0, sodium phosphate buffer
  Relative activity (%): 46 ± 3%
pH dependence of enzymes; pH 7.5, sodium phosphate buffer
  Relative activity (%): 54 ± 3%
pH dependence of enzymes; pH 8.0, Tris/HCl
  Relative activity (%): 84 ± 2%
pH dependence of enzymes; pH 8.5, Tris/HCl
  Relative activity (%): 88 ± 9%
pH dependence of enzymes; pH 9.0, Tris/HCl
  Relative activity (%): 91 ± 5%
pH dependence of enzymes; pH 9.5, Tris/HCl
  Relative activity (%): 100* %
pH dependence of enzymes; pH 10, Tris/HCl
  Relative activity (%): 47 ± 4%
pH dependence of enzymes; pH 10.5, Tris/HCl
  Relative activity (%): 10 ± 1%
[6]
  activity of crude culture supernatant: 0.5 U/mL
[7]; CD at 222 nm
  refolding: did not show any refolding
[7]; CD at 222 nm, unfolding
  melting temperature (Tm): 55.0 °C
[7]; estimated using CD-spectroscopy
  Tm (° C.): 55 ± 1 °C
